Test system: Las17 PPR-N fragment (residues 300-422)
Experiment: Biolayer Interferometry (BLI), Sla1 SH3 domains to Las17 PPR-N
Format: binding, Saccharomyces cerevisiae
Conditions: for fold increase in affinity over single SH3 domain: BLI, tandem vs single SH3 domain
Excerpt: To investigate binding characteristics of the SH3 domains further, Sla1 SH3 protein domains were purified. Three Sla1 SH3 single domains, tandem domains Sla1 SH3#1&2, Sla1 SH3#1&2 W108A (in which the W108A mutation prevents proline motif binding by SH3#2 but not SH3#1) and a fragment with all three SH3 domains were expressed recombinantly and purified. […] This outcome is in line with original research of Rodal and colleagues and with more recent studies of avidity developed by Williamson, which highlighted the importance of tandem binding SH3 domains[13],[27].
Biolayer Interferometry (BLI) assays were performed using an OctetⓇ R2 (Sartorius). Protein samples were placed into the wells of a polystyrene plate (ProxiPlateTM, Perkin Elmer) and binding measured either with Octet NTA Biosensors or Octet GST Biosensors. Screening assays were performed to determine the optimum loading concentration and time for each binding pair to ensure that the probe was not saturated. All experiments were repeated three times, each time with newly prepared protein. Analysis and visualisation were performed using GraphPad Prism 10.0.2.

B1: Sla1 SH3#1-2: SH3#1-2 (aa 5-131), tandem domains; sequence in b253 (protein)
chain: LGIYRAVYAYEPQTPEELAIQEDDLLYLLQKSDIDDWWTVKKRVIGSDSEEPVGLVPSTYIEEAPVLKKVRAIYDYEQVQNADEELTFHENDVFDVFDDKDADWLLVKSTVSNEFGFIPGNYVEPEN
modifications: 15N-labelled (NMR only); left off: GST, end not stated, cleaved
  fold increase in affinity over single SH3 domain: ~100 fold
Listed as tandem Sla1 SH3 domains
  fold increase in affinity over single SH3 domain: > 100 fold
Biolayer Interferometry, Octet R2, Las17 (aa 300-422), three repeats with newly prepared protein, read-out: binding affinity (Kd)
  Kd: 87 nM

— article PMC12081870 (Communications Biology, 2025)
